{"source": "patent US20090202520A1", "biological_target": "serum amyloid P (SAP) (human), P02743", "sequence (P02743 20-223)": "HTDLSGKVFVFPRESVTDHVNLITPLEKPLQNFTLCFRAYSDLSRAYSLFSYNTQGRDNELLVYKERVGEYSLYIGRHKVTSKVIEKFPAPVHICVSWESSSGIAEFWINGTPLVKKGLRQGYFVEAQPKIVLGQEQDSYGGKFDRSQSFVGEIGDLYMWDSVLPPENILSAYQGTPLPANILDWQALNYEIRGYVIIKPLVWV", "assay": "SPR (Biacore X100), SAP on CM5 chip, soluble receptor flowed, single cycle kinetics, KD = Kd/Ka", "conditions": "remark: other sources report otherwise"}
{"binder": "soluble recombinant FcγRIIIB (sFcγRIIIB), O75015 17-200 (receptor, UniProt O75015 17-200, looked up, not shown: small tags and cut ends) GMRTEDLPKAVVFLEPQWYSVLEKDSVTLKCQGAYSPEDNSTQWFHNENLISSQASSYFIDAATVNDSGEYRCQTNLSTLSDPVQLEVHIGWLLLQAPRWVFKEEDPIHLRCHSWKNTALHKVTYLQNGKDRKYFHHNSDFHIPKATLKDSGSYFCRGLVGSKNVSSETVNITITQGLAVSTIS", "values": [{"measurement": "Kd", "value": 0.4, "unit": "nM"}]}
